The values that follow come from patent US12291504B2, “Small molecule inhibition of sulfotransferase SULT1A3” (University of Pittsburgh—Of the Commonwealth System of …, priority 2018, dated 2025).

The term kcat denotes the maximal rate divided by the concentration of active sites.

The data set concerns Oc1ccc2ccc3cccc4ccc1c2c34. Kind of data set: purified protein, by the assay type. The settings on record: saturating PAPS (500 μM), 25.0 °C.

Method: Covalent Tagging of SULT1A3 Cys Constructs. Labeling of the SULT1A3 Cys constructs was performed as described previously (17,18,21). Briefly, 3-maleimido-PROXYL (spin label) or N-cyclohexylmaleimide (diamagnetic control) was added to an enzyme containing solution at 20-fold excess over reactive Cys. Unreacted Cys was monitored using DNTB (17,18,21); reactions were considered complete when >98% of the Cys was labeled. Reaction conditions: SULT1A3 (50 μM, monomer), 3-maleimido-PROXYL or N-cyclohexylmaleimide (1.0 mM), PAP (0.50 mM), KPO4 (50 mM), pH 7.5, 4±2° C. To prepare samples for NMR, reaction mixtures were dialyzed three times against 40 volumes of PAP (0.50 mM), KPO4 (50 mM), pD 7.4, D2O (>95%), 4±2° C.
Initial-Rate Studies. Initial-rate parameters for the labeled or mutant SULT1A3 constructs were determined using a previously described 1-HP assay (25). […] Reactions were monitored via fluorescence change associated with the conversion of 1-HP to 1-HP-S (λex=325 nm, λem=370 nm). Keq for the 1-HP sulfonation reaction is −250. Given the reaction conditions outlined above, ≥99% of 1-HP is converted to 1-HP-S, and ˜0.4% of PAPS is converted to PAP at equilibrium. […] Reaction progress curves were analyzed to obtain initial-rate parameters as described previously (26,27).
Inhibition studies. Inhibition parameters were determined under conditions identical to those described above (see, Initial-Rate Studies) except that [1-HP] was increased to 5.0 μM (˜61×Km) and inhibitor concentration was varied between 0.20-20×Ki. Ki was obtained using a least-squares fit to the following partial inhibition equation (25,28): v=kcat·(Ki+(1/kcat inh)·[I])/(Ki+[I]), where kcat inh is enzyme turnover at saturating substrates and allosteric inhibitor.

As to “SULT1A3 spin-labeled at Cys 116 (Homo sapiens; Q116C)”, under “other: spin label at Cys 116”, the Km was 87 (3) nM and the kcat worked out at 1.83 s⁻¹.
For the substance “SULT1A3 spin-labeled at Cys 198 (Homo sapiens; E198C)”, under “other: spin label at Cys 198”, the Km is 88 (2) nM and the kcat is 1.8 s⁻¹.
Regarding “SULT1A3 spin-labeled at Cys 234 (Homo sapiens; K234C)”, where the note is “other: spin label at Cys 234”, the Km is 84 (3) nM and the kcat was 1.82 s⁻¹.
